Patent publication US20160194391A1 (AstraZeneca / MedImmune, published 2016)
Like-named read-outs stand apart in the source and are kept apart here. One block for each binder: values may come before it.

Key:
[1] = molecular target: T1, human IL-6 (human, UniProt P05231 30-212); assay: cell-based or functional assay
[2] = molecular target: T2, Primate IL-6 (Macaca mulatta, UniProt P51494); assay: cell-based or functional assay
T2 sequence (cytokine, looked up): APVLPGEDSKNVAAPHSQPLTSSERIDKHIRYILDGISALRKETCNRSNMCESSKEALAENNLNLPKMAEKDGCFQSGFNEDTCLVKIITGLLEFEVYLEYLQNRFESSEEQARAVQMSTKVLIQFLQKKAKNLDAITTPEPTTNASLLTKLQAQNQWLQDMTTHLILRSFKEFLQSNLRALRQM

[3] = molecular target: T1, human IL-6; assay: SPR (SensiQ Pioneer), mAb captured on protein G, IL-6 as analyte (3×FLAG-IL-6 or IL-6 CYT-213, 1-100 nM), 25 C, 1:1 model
Protocol: (§1) Equilibrium constants for rabbit human chimeric mAbs were determined by binding the mAb to the protein G coated chip followed by binding of each analyte (IL-6 or IL-23) to its respective mAb. In order to minimize mass transfer effects, the surface densities of the mAbs for each analyte were adjusted so that as analyte binding approached saturation its corresponding RU fell between 200 and 300. […] For each binding and dissociation cycle the chip surface was regenerated with 15 uL of 20 mM NaOH (5671-02, Mallinckrodt Baker, Philliphsburg, N.J.). The assay temperature was maintained at 25° C. with an analyte flow rate of 50 μL/min and included a 2 minute association phase and 10-30 minute dissociation phase. The on/off rates (kₐ/kd) and dissociation constants (KD) were determined using the format described above along with pseudo-first-order 1:1 interaction model software (Qdat, ICx Nomadics, Stillwater, Okla.).

[4] = molecular target: T3, IL-23 p40-p19-His (human); assay: ELISA on IL-23 p40-p19-His
T3 construct: Single-chain fusion coated on the IL-23 ELISA plates; also called p40:p19-6×HIS
T3 chain: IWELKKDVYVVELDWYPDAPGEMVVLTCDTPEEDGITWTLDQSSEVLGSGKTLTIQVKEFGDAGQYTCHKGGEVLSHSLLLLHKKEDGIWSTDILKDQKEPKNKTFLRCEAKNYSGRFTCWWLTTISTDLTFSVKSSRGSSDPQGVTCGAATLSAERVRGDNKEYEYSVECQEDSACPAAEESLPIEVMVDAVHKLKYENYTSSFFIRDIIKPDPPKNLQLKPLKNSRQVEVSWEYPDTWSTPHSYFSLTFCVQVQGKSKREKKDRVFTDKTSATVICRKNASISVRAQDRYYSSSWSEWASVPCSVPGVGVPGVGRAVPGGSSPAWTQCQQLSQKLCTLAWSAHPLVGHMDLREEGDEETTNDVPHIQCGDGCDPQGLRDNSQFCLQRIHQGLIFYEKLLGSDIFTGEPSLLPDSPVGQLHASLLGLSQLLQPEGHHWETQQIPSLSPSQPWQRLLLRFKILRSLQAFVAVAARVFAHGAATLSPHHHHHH

[5] = molecular target: T4, monkey IL-12 (macaque) (macaque, UniProt P48091 23-219; P48095 23-328); assay: cell-based or functional assay
T4 sequence (looked up) 1: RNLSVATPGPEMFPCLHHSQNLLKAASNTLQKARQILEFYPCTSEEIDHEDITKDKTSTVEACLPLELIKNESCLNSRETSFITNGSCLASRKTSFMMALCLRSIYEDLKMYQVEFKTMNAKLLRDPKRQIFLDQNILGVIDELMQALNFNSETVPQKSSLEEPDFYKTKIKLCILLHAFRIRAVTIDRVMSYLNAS
T4 sequence (looked up) 2: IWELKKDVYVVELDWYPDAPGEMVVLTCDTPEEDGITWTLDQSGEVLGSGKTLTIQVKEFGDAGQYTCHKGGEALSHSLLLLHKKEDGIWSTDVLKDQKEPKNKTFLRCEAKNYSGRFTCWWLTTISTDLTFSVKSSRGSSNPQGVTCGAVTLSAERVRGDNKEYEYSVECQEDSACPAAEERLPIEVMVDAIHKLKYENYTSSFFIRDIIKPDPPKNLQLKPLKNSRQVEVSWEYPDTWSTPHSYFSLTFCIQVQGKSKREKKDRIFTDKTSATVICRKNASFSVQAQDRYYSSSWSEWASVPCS

[6] = molecular target: T5, human dimeric IL-23 (eBiosciences 34-8239) (human, UniProt P29460 23-328; Q9NPF7 20-189); assay: cell-based or functional assay
T5 sequence (looked up) 1: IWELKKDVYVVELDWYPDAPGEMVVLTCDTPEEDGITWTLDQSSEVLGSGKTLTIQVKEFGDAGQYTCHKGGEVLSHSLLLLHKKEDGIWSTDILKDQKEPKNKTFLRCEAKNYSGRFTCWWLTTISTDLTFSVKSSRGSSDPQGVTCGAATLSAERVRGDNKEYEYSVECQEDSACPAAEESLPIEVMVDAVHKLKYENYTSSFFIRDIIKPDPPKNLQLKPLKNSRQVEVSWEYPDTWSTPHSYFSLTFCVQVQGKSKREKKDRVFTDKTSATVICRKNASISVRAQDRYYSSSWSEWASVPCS
T5 sequence (looked up) 2: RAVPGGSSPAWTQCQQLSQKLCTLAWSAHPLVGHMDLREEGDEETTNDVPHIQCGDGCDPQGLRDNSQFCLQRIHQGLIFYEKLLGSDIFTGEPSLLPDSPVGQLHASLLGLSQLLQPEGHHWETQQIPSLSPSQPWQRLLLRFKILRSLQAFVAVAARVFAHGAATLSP

[7] = molecular target: T4, monkey IL-12 (macaque); assay: cell-based or functional assay; remark: listed apart in the source
[8] = molecular target: T6, human IL-12 (human, UniProt P29459 23-219; P29460 23-328); assay: IL-12 binding assay of the selection not described
T6 construct: Bioassay used Prospec-Tany Cyt-362
T6 sequence (looked up) 1: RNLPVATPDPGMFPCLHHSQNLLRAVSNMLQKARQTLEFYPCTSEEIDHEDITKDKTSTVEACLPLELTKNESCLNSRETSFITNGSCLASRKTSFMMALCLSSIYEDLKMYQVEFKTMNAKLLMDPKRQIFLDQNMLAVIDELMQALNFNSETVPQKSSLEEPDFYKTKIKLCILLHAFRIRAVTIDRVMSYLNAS
T6 sequence (looked up) 2: T5 sequence (looked up) 1

[9] = molecular target: T5, human dimeric IL-23 (eBiosciences …); assay: cell-based or functional assay; remark: listed apart in the source
[10] = molecular target: T5, human dimeric IL-23 (eBiosciences …); assay: cell-based or functional assay; remark: listed apart in the source
[11] = molecular target: T5, human dimeric IL-23 (eBiosciences …); assay: SPR (SensiQ Pioneer), mAb captured on protein G, human dimeric IL-23 as analyte (1-100 nM), 25 C, 1:1 model; the sentence names no analyte
Protocol: as §1

[12] = molecular target: T7, primate IL-23 (p40:p19 fusion, 6×HIS) (primate); assay: cell-based or functional assay
T7 chain: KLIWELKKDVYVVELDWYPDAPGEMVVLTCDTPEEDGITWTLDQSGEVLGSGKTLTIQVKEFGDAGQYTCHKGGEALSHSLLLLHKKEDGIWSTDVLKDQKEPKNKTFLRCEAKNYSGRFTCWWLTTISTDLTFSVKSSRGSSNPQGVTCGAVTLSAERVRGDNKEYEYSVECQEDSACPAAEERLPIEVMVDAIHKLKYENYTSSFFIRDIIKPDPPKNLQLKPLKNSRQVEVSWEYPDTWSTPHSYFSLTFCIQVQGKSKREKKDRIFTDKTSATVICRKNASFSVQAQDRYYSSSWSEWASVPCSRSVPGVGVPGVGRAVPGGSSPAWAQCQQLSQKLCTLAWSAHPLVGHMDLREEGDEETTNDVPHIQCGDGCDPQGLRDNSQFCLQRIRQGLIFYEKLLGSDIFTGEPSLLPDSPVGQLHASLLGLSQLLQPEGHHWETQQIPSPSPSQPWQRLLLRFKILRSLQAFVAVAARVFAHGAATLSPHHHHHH

[13] = molecular target: T6, human IL-12; assay: cell-based or functional assay
[14] = molecular target: T6, human IL-12; assay: ELISA, human IL-12 coated on the plate; antibody concentration not given [Binding to Human IL-12]
[15] = molecular target: T8, human IL-12 p40 subunit (human, UniProt P29460 23-328); assay: ELISA, human IL-12 p40 subunit coated on the plate; antibody concentration not given [Binding to human IL-12 p40]
T8 construct: Coated on ELISA plates
T8 sequence (looked up): T5 sequence (looked up) 1

B2: 45G5 chimeric mAb (antibody, V domains shown)
VH: QSVEESGGRLVTPGTPLTLTCTVSGFSLSVYPINWVRQAPGKGLGWIGIINDVDDTAYSAWAKGRFTISKASSTTVDLKITSPTTEDTATYFCARGYLSYAYAGDAFDPWGPGTLVTVSS
VL: AVLTQTPSPVSAAVGGTVTIKCQSSQSIYNNNLLSWYQQKPGQPPRLLIHFASTLASGVPDRFSGSGSGTQFTLTISGVQCDDAATYYCLGGYDDDADTAFGGGTEVVVV
notes: Rabbit/human chimeric IgG (human IgG1, kappa); HEK293; also called mAb 45G5
binding result [4]: binds
IC50 (read off the curve) (interferon-gamma from NK92 cells, OD450) [5]: ~4 ng/mL
EC50: concentration necessary to inhibit bioactivity of 50 pg/ml of IL-6 [6]: 0.385 ng/mL
IC50 (read off the curve) [7]: ~4 ng/mL
binding result [8]: binds
IC50 (read off the curve) (IL-17 from mouse splenocytes, OD450) [9]: ~2 ng/mL

B4: 31A12 chimeric mAb (antibody, V domains shown)
VH: QSLEESGGRLVTPGTPLTLTCTASGFSLSSYWMTWVRQAPGGGLEWIGTIATSSTYYASWAKGRFTISRTSTTVDLKMTSLTTEDTATYFCARGLTTDYDLDLWGPGTLVTVSS
VL: LVMTQTPASVSAAVGGTVTINCQASEDIESYLAWYQQKPGQRPKLLIYSASTLTSGVPSRFKGSGSGKQFTLTISGVQREDAATYYCLGADDTTTVFGGGTKVVVVR
notes: Rabbit/human chimeric IgG (human IgG1, kappa); HEK293; also called 31A12 mAb
binding result [14]: binds
binding result [15]: binds
IC50 (read off the curve) (IL-17 from mouse splenocytes, OD450) [12]: ~0.2 ng/mL

More lines, now with the values ahead:

EC50, inhibition of IL-6 induced B9 cell proliferation [1]: 0.109 ng/mL
IC50 (read off the curve) (B9 proliferation, OD570-600) [2]: ~10 ng/mL
Kd [3]: 0.058 nM
koff [3]: 4.75e-05 s⁻¹
kon [3]: 816000 M⁻¹ s⁻¹
B1: 9H4 chimeric mAb (antibody, V domains shown)
VH: QSLEESGGRLVTPGTPLTLTCTASGFSLSSYDMSWVRQAPGKGLEWIGYIYTDTSTYYANWAKGRFSISKTSTTVDLKMTSLTAEDTATYFCAKGSTDYAFDTRLDLWGPGTLVTVSS
VL: YDMTQTPASVEVAMGGTVTIKCQASQSISNELSWYQQKPGQPPKLLIYRTSTLASGVSSRFKGSGSGTEYTLTISGVECADAATYYCQQGYNSNDVDNVFGGGTEVVVVR
notes: Rabbit/human chimeric IgG (human IgG1, kappa); HEK293; also called 9H4 clone

binding result [4]: binds
IC50 (read off the curve) (IL-17 from mouse splenocytes, OD450) [10]: ~0.8 ng/mL
EC50: concentration necessary to inhibit bioactivity of 50 pg/ml of IL-6 [6]: 0.603 ng/mL
Kd [11]: 0.221 nM
koff [11]: 8.94e-05 s⁻¹
kon [11]: 403000 M⁻¹ s⁻¹
IC50 (read off the curve) (IL-17 from mouse splenocytes, OD450) [12]: ~4 ng/mL
IC50 (read off the curve) (interferon-gamma from NK92 cells, OD450) [13]: ~0.8 ng/mL
B3: 22H8 chimeric mAb (antibody, V domains shown)
VH: QSLEESGGRLVTPGTPLTLTCTVSGFSLSTYTMNWVRQSPGKGLEWIGAISYDGGTAYANWAKGRFTISKTSTTVDLQIASPTTEDTATYFCARGFYVYAYIGDAFDPWGPGTLVTVSS
VL: AVLTQTPSPVSATVGGTVTIKCQSSQTVYKNNLLSWYQQKPGQPPKLLIYLASTLASGVPSRFSGSGSGTQFTLTISGVQCDDAATYYCLGGYDDDADTAFGGGTEVVVVR
notes: Rabbit/human chimeric IgG (human IgG1, kappa); HEK293; also called mAb 22H8
